# Source: US20230416798A1 (MBRACE THERAPEUTICS, published 2023)
# Columns and labels:
# Test in all cases: alanine scan, high-throughput flow cytometry; criterion for major residues
# [1] = biological target: T1, GRP78 alanine scan variant at E329 (human, UniProt P11021 19-654)
# T1 construct: Member of the alanine scan library of GRP78
# Method: (§1) To characterize the binding properties of the antibodies described in Example 1 for GRP78, epitope mapping analysis was carried out by alanine scan mutagenesis. An alanine scan library of GRP78 was constructed. Each anti-GRP78 antibody was then screened for binding to each individual GRP78 variant, allowing identification of the target protein residues involved in antibody binding.
# (§2) Binding of each test antibody to each GRP78 variant in the alanine scanning library was determined by high-throughput flow cytometry under high stringency conditions (e.g., increased pH, increased salinity, increased temperature and/or increased wash time). Also included in the experiment was a commercially-available monoclonal antibody, 1H11-1H7, which was verified to bind to WT GFR78 on cells and thus determined to be a suitable positive control under these conditions (Thermo Fisher Scientific, Waltham, MA). Antibody binding to each of the GRP78 variant as measured by the fluorescence signal (raw fluorescence data minus the background), was normalized to its binding to the wildtype (WT) GRP78. For each GRP78 variant, such normalized binding to the test antibodies was plotted relative to that to the control antibody.
# [2] = biological target: T2, GRP78 alanine scan variant at R261 (human, UniProt P11021 19-654)
# T2 construct: Member of the alanine scan library of GRP78
# T2 sequence (P11021 other isoform, or with tags, fused parts or gaps mutant limits assumed): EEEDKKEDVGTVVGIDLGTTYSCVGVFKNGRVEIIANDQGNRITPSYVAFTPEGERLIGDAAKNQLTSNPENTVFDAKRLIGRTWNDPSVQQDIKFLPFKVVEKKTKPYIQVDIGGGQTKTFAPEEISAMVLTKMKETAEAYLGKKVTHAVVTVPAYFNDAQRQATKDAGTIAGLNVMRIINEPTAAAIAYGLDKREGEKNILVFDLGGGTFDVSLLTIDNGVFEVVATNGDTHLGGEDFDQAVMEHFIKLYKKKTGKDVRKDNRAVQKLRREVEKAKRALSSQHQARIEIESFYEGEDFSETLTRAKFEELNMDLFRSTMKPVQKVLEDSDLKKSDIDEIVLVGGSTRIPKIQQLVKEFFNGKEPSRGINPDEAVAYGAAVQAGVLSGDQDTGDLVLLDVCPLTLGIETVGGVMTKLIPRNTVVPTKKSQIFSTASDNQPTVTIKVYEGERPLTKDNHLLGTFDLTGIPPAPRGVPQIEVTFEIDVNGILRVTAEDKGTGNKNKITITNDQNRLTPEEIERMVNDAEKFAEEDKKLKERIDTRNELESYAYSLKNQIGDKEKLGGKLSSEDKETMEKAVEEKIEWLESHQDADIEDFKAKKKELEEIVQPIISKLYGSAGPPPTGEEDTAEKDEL
# Method: as §1, §2
# [3] = biological target: T3, GRP78 alanine scan variant at H265 (human, UniProt P11021 19-654)
# T3 construct: Member of the alanine scan library of GRP78
# T3 sequence (P11021 other isoform, or with tags, fused parts or gaps mutant limits assumed): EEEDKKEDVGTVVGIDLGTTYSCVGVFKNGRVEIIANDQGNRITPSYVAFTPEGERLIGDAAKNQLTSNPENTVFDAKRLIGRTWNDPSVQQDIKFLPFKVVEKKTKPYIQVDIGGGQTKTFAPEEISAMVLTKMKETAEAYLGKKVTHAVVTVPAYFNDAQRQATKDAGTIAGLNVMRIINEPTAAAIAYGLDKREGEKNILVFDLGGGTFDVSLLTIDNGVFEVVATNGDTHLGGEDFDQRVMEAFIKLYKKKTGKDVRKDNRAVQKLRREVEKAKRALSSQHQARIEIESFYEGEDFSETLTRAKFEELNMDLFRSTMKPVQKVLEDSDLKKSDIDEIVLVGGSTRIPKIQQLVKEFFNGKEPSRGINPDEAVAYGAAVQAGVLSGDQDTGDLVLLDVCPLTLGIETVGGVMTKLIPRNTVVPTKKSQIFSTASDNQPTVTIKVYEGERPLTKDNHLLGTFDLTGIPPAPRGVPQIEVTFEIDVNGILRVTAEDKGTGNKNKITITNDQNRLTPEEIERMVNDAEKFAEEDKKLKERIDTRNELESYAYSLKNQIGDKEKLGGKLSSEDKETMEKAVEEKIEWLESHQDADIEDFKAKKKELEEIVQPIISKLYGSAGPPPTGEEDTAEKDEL
# Method: as §1, §2
# [4] = biological target: T4, GRP78 alanine scan variant at R279 (human, UniProt P11021 19-654)
# T4 construct: Member of the alanine scan library of GRP78
# T4 sequence (P11021 other isoform, or with tags, fused parts or gaps mutant limits assumed): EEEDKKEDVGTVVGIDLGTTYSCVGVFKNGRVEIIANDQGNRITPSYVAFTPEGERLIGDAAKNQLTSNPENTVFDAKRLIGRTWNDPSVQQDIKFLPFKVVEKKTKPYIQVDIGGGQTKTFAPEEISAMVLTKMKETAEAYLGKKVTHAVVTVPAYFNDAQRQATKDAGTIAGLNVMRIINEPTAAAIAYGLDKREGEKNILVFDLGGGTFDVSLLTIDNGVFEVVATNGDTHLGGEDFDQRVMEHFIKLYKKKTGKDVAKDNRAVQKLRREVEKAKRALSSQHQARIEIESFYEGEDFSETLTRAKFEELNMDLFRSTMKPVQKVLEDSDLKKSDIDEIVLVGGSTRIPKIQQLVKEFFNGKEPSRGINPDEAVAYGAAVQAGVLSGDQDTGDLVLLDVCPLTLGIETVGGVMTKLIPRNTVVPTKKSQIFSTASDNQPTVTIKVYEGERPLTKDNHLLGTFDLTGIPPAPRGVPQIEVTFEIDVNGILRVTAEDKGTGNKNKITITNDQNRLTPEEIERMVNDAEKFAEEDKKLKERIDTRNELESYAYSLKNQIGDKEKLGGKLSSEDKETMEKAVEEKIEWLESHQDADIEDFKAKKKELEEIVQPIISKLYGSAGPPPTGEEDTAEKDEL
# Method: as §1, §2
# T1 sequence (P11021 other isoform, or with tags, fused parts or gaps mutant limits assumed): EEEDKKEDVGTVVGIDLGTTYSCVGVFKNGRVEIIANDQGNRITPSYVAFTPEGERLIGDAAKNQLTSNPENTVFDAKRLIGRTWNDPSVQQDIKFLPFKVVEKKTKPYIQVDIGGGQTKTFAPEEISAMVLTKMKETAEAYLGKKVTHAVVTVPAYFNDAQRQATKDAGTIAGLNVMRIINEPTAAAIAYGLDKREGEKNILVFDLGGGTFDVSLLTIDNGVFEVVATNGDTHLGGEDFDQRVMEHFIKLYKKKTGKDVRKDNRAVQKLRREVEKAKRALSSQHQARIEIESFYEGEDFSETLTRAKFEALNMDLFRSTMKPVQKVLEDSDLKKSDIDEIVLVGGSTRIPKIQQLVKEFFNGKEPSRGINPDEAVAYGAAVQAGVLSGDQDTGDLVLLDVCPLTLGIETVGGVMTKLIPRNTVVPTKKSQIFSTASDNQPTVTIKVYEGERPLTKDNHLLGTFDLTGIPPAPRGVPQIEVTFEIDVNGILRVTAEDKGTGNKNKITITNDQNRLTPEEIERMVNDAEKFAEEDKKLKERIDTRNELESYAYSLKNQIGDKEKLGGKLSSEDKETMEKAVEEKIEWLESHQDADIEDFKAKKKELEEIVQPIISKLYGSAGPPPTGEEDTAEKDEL
binding normalized to wildtype (WT) GRP78 [1],binding normalized to wildtype (WT) GRP78 [2],binding normalized to wildtype (WT) GRP78 [3],binding normalized to wildtype (WT) GRP78 [4],Binder
< 20%,< 20%,< 20%,,"anti-GRP78 antibody clone B4 (antibody, IgG1, V domains shown, Fully human mAb formatted as full-length IgG1; also called B4 mAb) VH: QVRLQESGPGLVKPSQTLSLTCTVSGGSISSGGYYWSWIRQHPGKGLEWIGYIYYSGSTYYNPSLESRVTISVDTSKNQFSLKLSSVTAADTAVYYCARYSSIDAFEIWGQGTMVTVSS VL: SYVLTQPPSVSVAPGKTATITCGGDDIGSKSVHWYQQKPGQAPVLVVYDDGDRPSGIPERFSGSNSGNTATLAISRVEAGDEADYYCQVWDSSSDQYVFGSGTKLTVL"
,< 20%,,< 20%,"anti-GRP78 antibody clone F6 (antibody, IgG1, V domains shown, Fully human mAb formatted as full-length IgG1; also called F6 mAb; Anti-GRP78 (F6)) VH: QVQLQQSGPGLVKPPQTLSLTCAISGDSVSSNSAAWNWIRQSPSRGLEWLGRTYYRSKWYNDYAVSVKSRITINPDTSKNQFSLQLNSVTPEDTAVYYCARDPYYYDSSGYYYFDAFDIWGQGTMVTVSS VL: SYELTQPHSVSVAPGQTARITCGGDNIGSKSVHWYQQRPGQAPVLVVYDDSDRPSGIPERFSGSNSENTATLTISGVEAGDEADYYCQVWDSTSHHVVFGGGTKLTVL"
